Results: publication PMC314469, “Protein Interaction Networks by Proteome Peptide Scanning” (PLoS Biology, 2004)

Assays:
Experiment in all cases: SPOT array
[1] = target: T1, Boi1 SH3 (BOI1_YEAST), P38041
T1 chain: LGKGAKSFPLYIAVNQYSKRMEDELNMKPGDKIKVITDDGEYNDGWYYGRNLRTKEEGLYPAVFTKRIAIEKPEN

[2] = target: T2, Boi2 SH3 (BOI2_YEAST), P39969
T2 chain: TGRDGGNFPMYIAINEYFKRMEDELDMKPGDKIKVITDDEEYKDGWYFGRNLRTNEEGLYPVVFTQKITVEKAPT

[3] = target: Sho1 SH3 (SHO1_YEAST), P40073
[4] = target: T3, Rvs167 SH3 (RV167_YEAST), P39743
T3 chain: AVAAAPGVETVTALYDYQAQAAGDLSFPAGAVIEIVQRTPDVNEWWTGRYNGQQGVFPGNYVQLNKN

[5] = target: T4, Yhr016c SH3 (YSC84_YEAST), P32793
T4 chain: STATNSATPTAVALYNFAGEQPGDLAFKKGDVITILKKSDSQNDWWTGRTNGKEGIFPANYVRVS

[6] = target: T5, Yfr024 SH3 (LSB3_YEAST), P43603
T5 chain: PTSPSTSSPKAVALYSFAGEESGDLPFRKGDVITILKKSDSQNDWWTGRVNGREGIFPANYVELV

[7] = target: T6, Myo5 SH3 (MYO5_YEAST), Q04439
T6 chain: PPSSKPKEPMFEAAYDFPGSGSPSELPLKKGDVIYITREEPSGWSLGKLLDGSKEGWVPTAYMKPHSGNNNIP

Sho1 SH3 (SHO1_YEAST), P40073, sequence (P40073 295-366): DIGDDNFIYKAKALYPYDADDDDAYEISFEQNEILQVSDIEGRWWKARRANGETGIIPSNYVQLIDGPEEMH

Binder	normalised SPOT signal, Boehringer light units (BLU); mean over the file's lines of this peptide [1]	normalised SPOT signal, Boehringer light units (BLU); mean over the file's lines of this peptide [2]	normalised SPOT signal, Boehringer light units (BLU); mean over the file's lines of this peptide [3]	normalised SPOT signal, Boehringer light units (BLU); mean over the file's lines of this peptide [4]	normalised SPOT signal, Boehringer light units (BLU); mean over the file's lines of this peptide [5]	normalised SPOT signal, Boehringer light units (BLU); mean over the file's lines of this peptide [6]	normalised SPOT signal, Boehringer light units (BLU); mean over the file's lines of this peptide [7]
QLQEKLSPDLPDEE [YGL173C 401-414]	49.4	27.9	27.1	59.4	16.4	11.2	216
PSSKKNKPNPPPGS [YJL056C 176-189]	571	0.8	72.1	40.5	28	49.2	107
QELPRAIPVMPFVD [YJL020C 471-484]	-0	22.2	11.6	57	118	700	118
PSRSKSNPILPIMR [YLR319C 684-697]	196	25.1	98.4	246	70.1	1260	523
QGSNKYSPSSPLTT [YDR122W 964-977]	34.7	31.3	44.3	37.5	146	74.9	171
QATGRRGPAPPPPP [YOR181W 378-391]	102	11.1	63.2	30.1	37.1	49.6	607
PVRSRVLPATPRQI [YKL086W 103-116]	2030	35.9	28200	10400	1380	15900	1470
QFALKNTPITPGSS [YGR061C 462-475]	142	0	36.4	79.8	33.6	66.9	111
PYMYKYLPRFPNLK [YPL137C 764-777]	177	991	1590	920	432	1150	382
PTANKYAPVSPTVQ [YPL085W 797-810]	168	27.4	37.8	93.3	11.2	0	191
QLINRFMPHFPSSP [YHR036W 42-55]	273	325	323	716	316	2780	518
PTVQKFSPHPPTTL [YER144C 362-375]	58	14.5	44.4	20.8	16	10.2	213
PVPVRMQPQPPQPM [YBR108W 383-396]	93.8	85.6	71.7	70.5	145	1650	188
QHKPKVKPSKPEAK [YHL007C 236-249]	2560	40.3	88.9	70.6	9.7	12.8	956
PSSHKRKPVIPWDA [YNL295W 201-214]	93.5	40.8	79.1	52	8.5	65.5	289
QIVNKPLPPLPVAG [YJL128C 89-102]	56.1	13.7	60100	41.5	28.6	1720	249
